From US20190338009A1 (ZEALAND PHARMA A S, published 2019)
Blank lines part the entries; values can stand above or below the binder they belong to. Square brackets hold non-standard residues; d marks the D form. Aib = CC(C)(N)C(=O)O

Tests used:
[1] = target: human glucagon-like peptide 1 receptor (GLP-1R) (human, UniProt P43220 24-463); test: cell-based or functional assay
[2] = target: T1, human GLP-2 receptor (hGLP2-R) (human, UniProt O95838 1-553); test: cell-based or functional assay
T1 sequence (looked up): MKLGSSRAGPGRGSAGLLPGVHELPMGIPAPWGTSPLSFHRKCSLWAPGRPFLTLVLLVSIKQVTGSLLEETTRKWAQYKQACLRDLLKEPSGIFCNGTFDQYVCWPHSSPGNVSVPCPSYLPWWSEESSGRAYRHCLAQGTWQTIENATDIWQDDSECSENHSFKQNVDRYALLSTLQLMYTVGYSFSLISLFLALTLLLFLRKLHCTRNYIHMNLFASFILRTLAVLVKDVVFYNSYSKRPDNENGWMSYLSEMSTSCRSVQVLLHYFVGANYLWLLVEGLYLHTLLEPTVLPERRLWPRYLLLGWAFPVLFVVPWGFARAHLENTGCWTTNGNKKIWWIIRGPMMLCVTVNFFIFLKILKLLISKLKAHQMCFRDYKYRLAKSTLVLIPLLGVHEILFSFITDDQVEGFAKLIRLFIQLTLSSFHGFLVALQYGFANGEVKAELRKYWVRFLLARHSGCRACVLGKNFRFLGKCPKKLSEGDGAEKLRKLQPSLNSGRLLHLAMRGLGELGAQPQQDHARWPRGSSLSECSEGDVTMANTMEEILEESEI

B1: Compound 25 (peptide)
peptide: H-H[Aib]EGSFTSELATILDEQAARDFIAWLIAQKITD-OH
SMILES: CC[C@H](C)[C@H](NC(=O)[C@H](CC(C)C)NC(=O)[C@H](Cc1c[nH]c2ccccc12)NC(=O)[C@H](C)NC(=O)[C@@H](NC(=O)[C@H](Cc1ccccc1)NC(=O)[C@H](CC(=O)O)NC(=O)[C@H](CCCNC(=N)N)NC(=O)[C@H](C)NC(=O)[C@H](C)NC(=O)[C@H](CCC(N)=O)NC(=O)[C@H](CCC(=O)O)NC(=O)[C@H](CC(=O)O)NC(=O)[C@H](CC(C)C)NC(=O)[C@@H](NC(=O)[C@@H](NC(=O)[C@H](C)NC(=O)[C@H](CC(C)C)NC(=O)[C@H](CCC(=O)O)NC(=O)[C@H](CO)NC(=O)[C@@H](NC(=O)[C@H](Cc1ccccc1)NC(=O)[C@H](CO)NC(=O)CNC(=O)[C@H](CCC(=O)O)NC(=O)C(C)(C)NC(=O)[C@@H](N)Cc1c[nH]cn1)[C@@H](C)O)[C@@H](C)O)[C@@H](C)CC)[C@@H](C)CC)C(=O)N[C@@H](C)C(=O)N[C@@H](CCC(N)=O)C(=O)N[C@@H](CCCCN)C(=O)N[C@H](C(=O)N[C@H](C(=O)N[C@@H](CC(=O)O)C(=O)O)[C@@H](C)O)[C@@H](C)CC
- EC50 GLP-1 (nM); cAMP AlphaScreen, HEK293 cells expressing human GLP-1R [1]: 0.008 nM
- EC50 GLP-2 (nM); cAMP AlphaScreen, HEK293 cells expressing human GLP-2R [2]: 0.062 nM

B4: Compound 24 (peptide)
peptide: H-H[Aib]EGSFTSELATILDEQAARDFIAWLQAHKITD-OH
SMILES: CC[C@H](C)[C@H](NC(=O)[C@H](Cc1ccccc1)NC(=O)[C@H](CC(=O)O)NC(=O)[C@H](CCCNC(=N)N)NC(=O)[C@H](C)NC(=O)[C@H](C)NC(=O)[C@H](CCC(N)=O)NC(=O)[C@H](CCC(=O)O)NC(=O)[C@H](CC(=O)O)NC(=O)[C@H](CC(C)C)NC(=O)[C@@H](NC(=O)[C@@H](NC(=O)[C@H](C)NC(=O)[C@H](CC(C)C)NC(=O)[C@H](CCC(=O)O)NC(=O)[C@H](CO)NC(=O)[C@@H](NC(=O)[C@H](Cc1ccccc1)NC(=O)[C@H](CO)NC(=O)CNC(=O)[C@H](CCC(=O)O)NC(=O)C(C)(C)NC(=O)[C@@H](N)Cc1c[nH]cn1)[C@@H](C)O)[C@@H](C)O)[C@@H](C)CC)C(=O)N[C@@H](C)C(=O)N[C@@H](Cc1c[nH]c2ccccc12)C(=O)N[C@@H](CC(C)C)C(=O)N[C@@H](CCC(N)=O)C(=O)N[C@@H](C)C(=O)N[C@@H](Cc1c[nH]cn1)C(=O)N[C@@H](CCCCN)C(=O)N[C@H](C(=O)N[C@H](C(=O)N[C@@H](CC(=O)O)C(=O)O)[C@@H](C)O)[C@@H](C)CC
- EC50 GLP-1 (nM); cAMP AlphaScreen, HEK293 cells expressing human GLP-1R [1]: 0.042 nM
- EC50 GLP-2 (nM); cAMP AlphaScreen, HEK293 cells expressing human GLP-2R [2]: 0.049 nM

B6: Compound 28 (peptide)
peptide: H-H[Aib]EGSFTSELATILDEQAARDFIAWLYAHKITD-OH
SMILES: CC[C@H](C)[C@H](NC(=O)[C@H](Cc1ccccc1)NC(=O)[C@H](CC(=O)O)NC(=O)[C@H](CCCNC(=N)N)NC(=O)[C@H](C)NC(=O)[C@H](C)NC(=O)[C@H](CCC(N)=O)NC(=O)[C@H](CCC(=O)O)NC(=O)[C@H](CC(=O)O)NC(=O)[C@H](CC(C)C)NC(=O)[C@@H](NC(=O)[C@@H](NC(=O)[C@H](C)NC(=O)[C@H](CC(C)C)NC(=O)[C@H](CCC(=O)O)NC(=O)[C@H](CO)NC(=O)[C@@H](NC(=O)[C@H](Cc1ccccc1)NC(=O)[C@H](CO)NC(=O)CNC(=O)[C@H](CCC(=O)O)NC(=O)C(C)(C)NC(=O)[C@@H](N)Cc1c[nH]cn1)[C@@H](C)O)[C@@H](C)O)[C@@H](C)CC)C(=O)N[C@@H](C)C(=O)N[C@@H](Cc1c[nH]c2ccccc12)C(=O)N[C@@H](CC(C)C)C(=O)N[C@@H](Cc1ccc(O)cc1)C(=O)N[C@@H](C)C(=O)N[C@@H](Cc1c[nH]cn1)C(=O)N[C@@H](CCCCN)C(=O)N[C@H](C(=O)N[C@H](C(=O)N[C@@H](CC(=O)O)C(=O)O)[C@@H](C)O)[C@@H](C)CC
- EC50 GLP-1 (nM); cAMP AlphaScreen, HEK293 cells expressing human GLP-1R [1]: 0.11 nM
- EC50 GLP-2 (nM); cAMP AlphaScreen, HEK293 cells expressing human GLP-2R [2]: 0.024 nM

The next lines start with the values.

- EC50 GLP-1 (nM); cAMP AlphaScreen, HEK293 cells expressing human GLP-1R [1]: 0.044 nM
- EC50 GLP-2 (nM); cAMP AlphaScreen, HEK293 cells expressing human GLP-2R [2]: 0.11 nM
B2: Compound 29 (peptide)
peptide: H-H[Aib]EGTFTDELATILDEQAARDFIAWLQAQKITD-OH
SMILES: CC[C@H](C)[C@H](NC(=O)[C@H](Cc1ccccc1)NC(=O)[C@H](CC(=O)O)NC(=O)[C@H](CCCNC(=N)N)NC(=O)[C@H](C)NC(=O)[C@H](C)NC(=O)[C@H](CCC(N)=O)NC(=O)[C@H](CCC(=O)O)NC(=O)[C@H](CC(=O)O)NC(=O)[C@H](CC(C)C)NC(=O)[C@@H](NC(=O)[C@@H](NC(=O)[C@H](C)NC(=O)[C@H](CC(C)C)NC(=O)[C@H](CCC(=O)O)NC(=O)[C@H](CC(=O)O)NC(=O)[C@@H](NC(=O)[C@H](Cc1ccccc1)NC(=O)[C@@H](NC(=O)CNC(=O)[C@H](CCC(=O)O)NC(=O)C(C)(C)NC(=O)[C@@H](N)Cc1c[nH]cn1)[C@@H](C)O)[C@@H](C)O)[C@@H](C)O)[C@@H](C)CC)C(=O)N[C@@H](C)C(=O)N[C@@H](Cc1c[nH]c2ccccc12)C(=O)N[C@@H](CC(C)C)C(=O)N[C@@H](CCC(N)=O)C(=O)N[C@@H](C)C(=O)N[C@@H](CCC(N)=O)C(=O)N[C@@H](CCCCN)C(=O)N[C@H](C(=O)N[C@H](C(=O)N[C@@H](CC(=O)O)C(=O)O)[C@@H](C)O)[C@@H](C)CC

- EC50 GLP-1 (nM); cAMP AlphaScreen, HEK293 cells expressing human GLP-1R [1]: 0.014 nM
- EC50 GLP-2 (nM); cAMP AlphaScreen, HEK293 cells expressing human GLP-2R [2]: 0.036 nM
B3: Compound 1 (peptide)
peptide: H-H[Aib]EGSFTSELATILDEQAARDFIAWLIAHKITD-OH
SMILES: CC[C@H](C)[C@H](NC(=O)[C@H](CC(C)C)NC(=O)[C@H](Cc1c[nH]c2ccccc12)NC(=O)[C@H](C)NC(=O)[C@@H](NC(=O)[C@H](Cc1ccccc1)NC(=O)[C@H](CC(=O)O)NC(=O)[C@H](CCCNC(=N)N)NC(=O)[C@H](C)NC(=O)[C@H](C)NC(=O)[C@H](CCC(N)=O)NC(=O)[C@H](CCC(=O)O)NC(=O)[C@H](CC(=O)O)NC(=O)[C@H](CC(C)C)NC(=O)[C@@H](NC(=O)[C@@H](NC(=O)[C@H](C)NC(=O)[C@H](CC(C)C)NC(=O)[C@H](CCC(=O)O)NC(=O)[C@H](CO)NC(=O)[C@@H](NC(=O)[C@H](Cc1ccccc1)NC(=O)[C@H](CO)NC(=O)CNC(=O)[C@H](CCC(=O)O)NC(=O)C(C)(C)NC(=O)[C@@H](N)Cc1c[nH]cn1)[C@@H](C)O)[C@@H](C)O)[C@@H](C)CC)[C@@H](C)CC)C(=O)N[C@@H](C)C(=O)N[C@@H](Cc1c[nH]cn1)C(=O)N[C@@H](CCCCN)C(=O)N[C@H](C(=O)N[C@H](C(=O)N[C@@H](CC(=O)O)C(=O)O)[C@@H](C)O)[C@@H](C)CC

- EC50 GLP-1 (nM); cAMP AlphaScreen, HEK293 cells expressing human GLP-1R [1]: 0.12 nM
- EC50 GLP-2 (nM); cAMP AlphaScreen, HEK293 cells expressing human GLP-2R [2]: 0.37 nM
B5: Compound 27 (peptide)
peptide: H-H[Aib]EGTFTSELSTILDEQAARDFIAWLHAQKITD-OH
SMILES: CC[C@H](C)[C@H](NC(=O)[C@H](Cc1ccccc1)NC(=O)[C@H](CC(=O)O)NC(=O)[C@H](CCCNC(=N)N)NC(=O)[C@H](C)NC(=O)[C@H](C)NC(=O)[C@H](CCC(N)=O)NC(=O)[C@H](CCC(=O)O)NC(=O)[C@H](CC(=O)O)NC(=O)[C@H](CC(C)C)NC(=O)[C@@H](NC(=O)[C@@H](NC(=O)[C@H](CO)NC(=O)[C@H](CC(C)C)NC(=O)[C@H](CCC(=O)O)NC(=O)[C@H](CO)NC(=O)[C@@H](NC(=O)[C@H](Cc1ccccc1)NC(=O)[C@@H](NC(=O)CNC(=O)[C@H](CCC(=O)O)NC(=O)C(C)(C)NC(=O)[C@@H](N)Cc1c[nH]cn1)[C@@H](C)O)[C@@H](C)O)[C@@H](C)O)[C@@H](C)CC)C(=O)N[C@@H](C)C(=O)N[C@@H](Cc1c[nH]c2ccccc12)C(=O)N[C@@H](CC(C)C)C(=O)N[C@@H](Cc1c[nH]cn1)C(=O)N[C@@H](C)C(=O)N[C@@H](CCC(N)=O)C(=O)N[C@@H](CCCCN)C(=O)N[C@H](C(=O)N[C@H](C(=O)N[C@@H](CC(=O)O)C(=O)O)[C@@H](C)O)[C@@H](C)CC

- EC50 GLP-1 (nM); cAMP AlphaScreen, HEK293 cells expressing human GLP-1R [1]: 0.013 nM
- EC50 GLP-2 (nM); cAMP AlphaScreen, HEK293 cells expressing human GLP-2R [2]: 0.19 nM
B7: Compound 26 (peptide)
peptide: H-H[Aib]EGTFTSELATILDEQAARDFIAWLQAQKITD-OH
SMILES: CC[C@H](C)[C@H](NC(=O)[C@H](Cc1ccccc1)NC(=O)[C@H](CC(=O)O)NC(=O)[C@H](CCCNC(=N)N)NC(=O)[C@H](C)NC(=O)[C@H](C)NC(=O)[C@H](CCC(N)=O)NC(=O)[C@H](CCC(=O)O)NC(=O)[C@H](CC(=O)O)NC(=O)[C@H](CC(C)C)NC(=O)[C@@H](NC(=O)[C@@H](NC(=O)[C@H](C)NC(=O)[C@H](CC(C)C)NC(=O)[C@H](CCC(=O)O)NC(=O)[C@H](CO)NC(=O)[C@@H](NC(=O)[C@H](Cc1ccccc1)NC(=O)[C@@H](NC(=O)CNC(=O)[C@H](CCC(=O)O)NC(=O)C(C)(C)NC(=O)[C@@H](N)Cc1c[nH]cn1)[C@@H](C)O)[C@@H](C)O)[C@@H](C)O)[C@@H](C)CC)C(=O)N[C@@H](C)C(=O)N[C@@H](Cc1c[nH]c2ccccc12)C(=O)N[C@@H](CC(C)C)C(=O)N[C@@H](CCC(N)=O)C(=O)N[C@@H](C)C(=O)N[C@@H](CCC(N)=O)C(=O)N[C@@H](CCCCN)C(=O)N[C@H](C(=O)N[C@H](C(=O)N[C@@H](CC(=O)O)C(=O)O)[C@@H](C)O)[C@@H](C)CC
